Results published in the supplement of paper PMC12455559.
± gives the standard deviation of the averaged measurements.

Tests used:
[1] = melting temperature (DSF); higher = more thermostable
Summary of the method: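 Enzymes made in E. coli C41(DE3) were nickel-bead purified and cut free with SUMO protease before testing. Differential scanning fluorimetry gave each melting temperature. For this, 5 μL 5X Sypro Orange was added to 45 μL enzyme (0 to 0.3 mg/mL) in sealed PCR plates, and a Bio-Rad CFX96 read fluorescence from 25 °C over 250 cycles of 0.3 °C each, ramping at 0.3 °C/s.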

[2] = purified protein yield per well (BCA); higher = higher soluble expression
Summary of the method: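 The measured quantity is purified protein yield per well, determined with the Pierce Rapid Gold BCA kit. Anything below 25 ug (0.1 mg/mL) lies under the detection threshold. Enzymes were expressed in E. coli C41(DE3) in 2 mL autoinduction cultures with 100 µg/mL kanamycin at 37 °C for 2 h, then 18 °C for 40 h, and purified on an OT-2 robot using Ni-charged magnetic beads and SUMO protease release.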

[3] = PET hydrolysis, aromatic products released after 48 h (umol product/mg enzyme); higher = more PET depolymerization activity
Summary of the method: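 Hydrolysis activity toward PET is reported as supernatant aromatic product per mg enzyme. To measure it, 5 μg (50 μL) of tagless enzyme was incubated with 3.5 mg amorphous PET film or crystalline PET powder in 450 μL buffer for 48 h at 40 or 60 °C in sealed, unshaken plates. The product was quantified by absorbance at 260 and 280 nm relative to buffer blanks.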

[4] = substrate: aFilm, 40 °C, pH 5.5
[5] = substrate: aFilm, 40 °C, pH 6.5
[6] = substrate: aFilm, 40 °C, pH 7.5
[7] = substrate: aFilm, 40 °C, pH 8.5
[8] = substrate: aFilm, 60 °C, pH 5.5
[9] = substrate: aFilm, 60 °C, pH 6.5
[10] = substrate: aFilm, 60 °C, pH 7.5
[11] = substrate: aFilm, 60 °C, pH 8.5
[12] = substrate: cryPow, 40 °C, pH 5.5
[13] = substrate: cryPow, 40 °C, pH 6.5
[14] = substrate: cryPow, 40 °C, pH 7.5
[15] = substrate: cryPow, 40 °C, pH 8.5
[16] = substrate: cryPow, 60 °C, pH 5.5
[17] = substrate: cryPow, 60 °C, pH 6.5
[18] = substrate: cryPow, 60 °C, pH 7.5
[19] = substrate: cryPow, 60 °C, pH 8.5
[20] = substrate: aFilm, 40 °C, pH 4.5
[21] = substrate: aFilm, 60 °C, pH 4.5
[22] = substrate: cryPow, 40 °C, pH 4.5
[23] = substrate: cryPow, 60 °C, pH 4.5

Row | Sequence | melting temperature [1] | purified protein yield per well [2] | PET hydrolysis [3, 4] | PET hydrolysis [3, 5] | PET hydrolysis [3, 6] | PET hydrolysis [3, 7] | PET hydrolysis [3, 8] | PET hydrolysis [3, 9] | PET hydrolysis [3, 10] | PET hydrolysis [3, 11] | PET hydrolysis [3, 12] | PET hydrolysis [3, 13] | PET hydrolysis [3, 14] | PET hydrolysis [3, 15] | PET hydrolysis [3, 16] | PET hydrolysis [3, 17] | PET hydrolysis [3, 18] | PET hydrolysis [3, 19] | PET hydrolysis [3, 20] | PET hydrolysis [3, 21] | PET hydrolysis [3, 22] | PET hydrolysis [3, 23]
1 | ADNPYQRGPNPTQASIAANRGTFATAETSVGGGNGFGGAKIYYPTDTSQGTFGAIAVSPGYTATWAAEGAWMGHWLASFGFVVIGIDTINRNDREYARGTQLLAALDYLTQRSSVRTRVDPNRLAVMGHSMGGGGTISAALRRPTLKAAIGLAPYYPSQSTSGMQVPTMLLAGQNDGTSTPASIVTFYNDIPASTEKVYLELTGAGHGFPTSNNSVVTRKVIPWMKIFIDQDTRYTQFLCPLQDLTGIRTYRNSCPLLPNDPGTTFSLAGSASGKCADVPGRVQTNGTGLIIWTCNNAGNQQWTQTPAGELRIYGNTKCMDANASGQGARVTINTCNGGNSQKWTVNTNGTVTNAASGRCLDAGGTADNSPVVVNTCNAASGQTWTKRP [DP047] | 49.9 C | 311 µg | < 3 | < 3 | < 3 | < 3 | < 3 | < 3 | < 3 | < 3 | < 3 | < 3 | < 3 | < 3 | < 3 | < 3 | < 3 | < 3 |  |  |  | 
2 | ADNPYQRGPNPTRESVAANRGTFATAETSVGGGNGFGGAKIYYPADTSQGKFAALAVVPGYTATWAAEGAWMGHWLASFGFVIIGIDTNSRNDWDTARGDQLLAALDYLTQRSSVRDRVDANRLGVMGHSMGGGGAISAALKRPTLKAAIGNAPFSASQNLTTMRVPIALNAGQRDGTVTPSMVTGYYNQVPATTEKMYLEFSGAGHAFPTSNNSALTRKIIPWMKIFLDQDTRYQQFLCPVMDNTGISASRSSCPLIPGDPTPPTDTYSLAGAASGKCADVEGRSQTNGAKLLLWPCNGQVNQRWTQTAAGELRVYDNPKCMDAGGSGQGERVTSNACNGGNSQKWTVNANGTVTNTTSGRCLDATGTADDAPVVVNTCNGAASQNWSKRS [TEP131] | 55.3 C | 331 µg | < 3 | < 3 | < 3 |  | < 3 | < 3 | < 3 |  | < 3 | 4 | 6.5 ± 0.71 |  | < 3 | < 3 | < 3 |  | < 3 | < 3 | < 3 | < 3
3 | ADNPYQRGPNPTRESVAASRGTFATAETSVGGGNGFAAAKIYYPTDTGQGKFGAIAVVPGYTATWAAEGAWMGHWLASFGFVVIGIDTLSRNDWDVARGTQLLAALDYLTQRSSVRDRVDATRLAVMGHSMGGGGAISAALRRPSLKTAIGNAPFSASQNLNNMQIPTALLAGQRDGTTTPSSISGYYNQIPAGVEKMYLELTGAGHGFPTSNNSVMTRKVIPWMKIFIDNDTRYHQFLCPLMDNTGISAYRSTCPLIPGDPTPPSDTYSLVGAASGKCADVEGVSQANGARLLLWTCNGQVNQRWTQTAAGELRVYDNPKCMDAGASAQGTRVTINACNGGNSQKWTVNANGTVTNAASGRCLDAGGTADNSPVVVNTCTGGSSQNWSKRS [TEP029] | 57.7 C | 282 µg | < 3 | < 3 | < 3 |  | < 3 | < 3 | < 3 |  | < 3 | 14.5 ± 5 | 15.5 ± 0.71 |  | < 3 | < 3 | < 3 |  | < 3 | < 3 | < 3 | < 3
4 | ADNPYQRGPNPTVASVAATRGTFATAQTSVPAGNGFGGGVIYYPTDTSQGTFGGVAIVPGYSALFANEEAWMGPWLASFGFVVIGIETNSRTDSADARGTQLLAALDYLTQRSSVRDRVDPNRLSVVGHSAGGAGVLSAILRRPSLKAGIGLAPGSPVGDYSLSNDRVPTMFISGQRDTTVTQSYLNGLYTTIPASTPSAWVEITGVDHLFATRANTTEMRVLIPWLKIWVDNDTRYTQFLCPLADSTGISMYRNKCPYVPPGGSSPSPSPSPSSSPSRFPSPSPSPSPSQSPSQSPSASPSPPPPGACVAEYRTVNSWPGGYQGEVTVTAGGSAVNGWTVRWTLGSGQTITQLWNGTLSTSGSAVTVKNASFNGSIPASGSATFGFLATGTPSTPSLTCTSP [ESM015] | 60.7 C | 540 µg |  |  |  |  |  |  |  |  | < 3 | < 3 | < 3 |  | < 3 | < 3 | < 3 |  |  |  | < 3 | < 3
5 | ADQRGPDPTVQSIEAARGPFATSTSRVSSLVSGFGGGTIYYPTDTSQGRFGGVVIAPGYTAGESSIAWLGPRLASQGFVVFTIDTLTRVDQPASRGRQLLAAADYLTQRSDVADRVDPARLAVMGHSMGGGGTLEAAKSRPGLKAIIPLTPWNLDKTWPEITTPTLIFGAQNDSVASVVTHARPFYQSLPATTPRSYLELRGASHFAPNLSNTTIAKYSIAWLKRFVDDDQRYTQFLCPAPADTALSDVRTSCPF [TEP091] | 55.6 C | 36.2 µg |  |  |  |  |  |  |  |  | 5 | 10 | 17 |  |  |  |  |  |  |  | < 3 | 
6 | ADSPYQRGPDPTLASVAATRGPFATTQATVPAGNGFNGGYVYYPTDTSQGTWGAVAIVPGYSALFANEEAWMGPWLASFGFVVIGIETNSRTDGADARATQLLAALDYLTRTSPIRNRVDPNRLSVMGHSAGGAGTLLAALRRPTLKAAVGLAPGTPGNNLNMSTTQVPTMLLSGQNDGTVTPSYVQGIYNTLPAGVEHAWAELAGNDHLSFTRSNPTEMRLLIPWLKTFLDNDTRYTQFLCPLADSTGVSRYSATCPLVPPDGPTPPPTTAPPTTTPPTSTPPTTSAPTTPPPSGAACTATYRTVNSWSGGFQGEVTVTAGTAAVNGWTVTWNLSNGQSISQVWNGTLSTSGSTATVRNVSYNGSLAPGGTTTFGFLGSGTPANASPTCASP [ESM014] | 59.2 C | 85.8 µg |  |  |  |  |  |  |  |  | < 3 | < 3 | < 3 |  | < 3 | < 3 | < 3 |  |  |  | < 3 | < 3
7 | ADTPYERGPNPSESLIEQRRGNYDIAQRSISRFSSDGFRNGTIYYPTDTSDGKFGVIAISPGYTAGESSIAWLGSRIASFGFVVVTINTTTRYDQPRQRSTQLLAALDHAMNDSVVGPLIDPERQAVMGHSMGGGGALQAAESRPEIDAVVALTPWNLKKNWDGVDAATLIIGAERDTVASVRTHSIPFYESLTQAEQRGYLELRGASHFAPNVSNTTIAKYSIAWMKRYLDNDDRYDQFLNPGPAVGYASGVSDYRLQ [DP003] | 42.4 C | 185 µg | < 3 | < 3 | < 3 | 3 ± 4.2 | < 3 | < 3 | < 3 | < 3 | < 3 | < 3 | < 3 | < 3 | < 3 | < 3 | < 3 | < 3 |  |  |  | 
8 | AEAADNPYQRGPDPTLASVAATRGPFATAQATVPAGNGFNGGYVYYPTDTSLGTWGAVAIVPGYSALFADEEAWMGPWLASFGFVVLGIETNSRTDGADARATQLLAALDYLTQSSPVRHRVDANRLGVMGHSAGGAGTLMAALRRPSLKSAVGLAPGAPGNSLNMSTTQVPTMLISGQNDGTVTPSYVQGIYNTLPATVEHAWAELAGNDHLSFTRPNPTEMRILIPWLKIFLDNDTRYTQFLCPLADSTGVSRYSATCPLVPPGGPTAPPTVTPPPPTPTTPSPTTPPTSAACTATYRTVNSWSGGFQGEVTVTAGRAAINGWTVRWDLGNGQSISQVWNGTLSTSGSTATVRNVSYNGSLAPAASTGFGFLGTGAPAIPRLTCTSP [ESM037] | 73.3 C | 358 µg | < 3 | < 3 | < 3 |  | < 3 | < 3 | < 3 |  | < 3 | < 3 | < 3 |  | < 3 | < 3 | < 3 |  | < 3 | < 3 | < 3 | < 3
9 | AENPHQRGPNPTVAALEAAAGPFAVAKVSVPGGHGFGGGTITYPTDTSQGTFGAVAVSPGFIESEGAIAWFGPRLASHGFVVITISTNGLFDQPDARGAQLLAALDYVTKSSAVRDRVDPARLAVMGHSMGGGGALYATAQRPALKASIPLLAWSNTKSWGSVRVPTMVIGAENDFIASVGSHSEPFYQSLGGEKAYLEMNDADHFVTNSPTPTVGKLTVSWLKRFMDNDTRYDQFLCPAPPVGGPISEYRDTCPYI [DP017] | 49.6 C | 30 µg |  |  |  |  |  |  |  |  | 4 | 11 | 13 | 6 |  |  |  |  |  |  |  | 
10 | AENPYERGPAPTTASIEALRGPFATAETTVSSLSVRGFGGGTIHYPTSTAEGTFGAVAVAPGYTASQSSLSWLGPRLASQGFVVFVIDTNSRYDQPASRGDQLLAALDYLTTSSSVRGRIDASRLGVMGHSMGGGGALEATKDRPSLQASIPLTPWNTTKTWSTVRTPTLVVGAEDDSVAPVRTHAEPFYEGLPSTLDKAYLELAGASHFAPNSSNTTIAKYSIAWLKRFVDDDTRYEQFLCPAPRGTAISEYRDTCPHP [TEP110] | 47.2 C | 48.9 µg |  |  |  |  |  |  |  |  | < 3 | < 3 | < 3 |  |  |  |  |  |  |  | < 3 | 
11 | AENPYQRGPDPTLAALAASAGPYPIMETVVGSAEVTNFGGASIYYPAGTADGTFGGVAVTPGFLGPRSTMEWVARRVASHGFVVINIDTLERNDTPPLRARQMLAALDYLTGASAVRDRVDPTRLAVMGHSMGGGGSLQASRQRPQLKAAVPLTPWSNDKDFSADVVPTLIIGAELDDTAPVAEHAEPFFESIAAARKAYLELNDAEHRAPIRTNETIGTYSVAWLKRFVDDDTRYEQFLCPPPAPSAAIEEFRGTCPSS [TEP106] | 41.5 C | 87.7 µg |  |  |  |  |  |  |  |  | < 3 | < 3 | < 3 |  | < 3 | < 3 | < 3 |  |  |  | < 3 | < 3
12 | AESPYQRGPDPTRESVAASRGTFATAEVSVPAGNGFGGGVIYYPTDTSQGTFGGVAIVPGYTATWAAEGAWMGHWLASFGFVVIGIDTINRNDWDTARGTQLLAALDYLTQRSSVRNRVDANRLAVMGHSMGGGGAMHAALQRPSLKAAIGLAPFSPSQNLTNMRVPTLLVAGQNDTTTTPTSILNLYNGIPATTEKAYLELTGAGHGFPTSANSVMTRKVIPWLKIFVDHDTRYHQFLCPLLDWTGITAYRSSCPLNPPGGPTGSTFSLVGADSGKCVDVPGASRTNGTGLITYTCNGASNQRWTQTAANELRIYDNSKCMEAGTSAGSRAVITSCTGGNGQKWTFNANGTITHAQSGLCLYVNGGSTANQAAVIVWTCHGGSNQVWTRQP [TEP163] | 73 C | 148 µg |  |  |  |  |  |  |  |  | 8 | 8 | 5 |  | < 3 | 3 | < 3 |  |  |  | < 3 | < 3
